Data from article PMC10318527, “Utilization of dietary mixed-linkage β-glucans by the Firmicute Blautia producta” (The Journal of Biological Chemistry, 2023).

Columns and labels:
[1] = substrate: OC[C@H]1O[C@@H](O[C@H]2[C@H](O)[C@@H](O)[C@H](O[C@H]3[C@H](O)[C@@H](CO)OC(O)[C@@H]3O)O[C@@H]2CO)[C@H](O)[C@@H](O)[C@@H]1O; test: Phosphorolysis kinetics of BpGH94MLG (PAHBAH assay); type: biochemical, Blautia producta ATCC 27340; conditions: other: phosphorolytic reaction, pH 6.5, 37.0 °C
Protocol: (§1) TLC was used for analyzing enzymatic actions. […] Kinetics parameters for BpGH94MLG were determined with G4G3G, G4G4G3G and cellotriose, following a p-hydroxybenzoic acid hydrazide (PAHBAH) reducing sugar assay ([69]).

[2] = substrate: OC[C@H]1O[C@@H](O[C@H]2[C@H](O)[C@@H](O)[C@H](O[C@H]3[C@H](O)[C@@H](O)C(O)O[C@@H]3CO)O[C@@H]2CO)[C@H](O)[C@@H](O)[C@@H]1O; test: as above; type: biochemical, Blautia producta ATCC 27340; conditions: other: phosphorolytic reaction, pH 6.5, 37.0 °C
Protocol: as §1

[3] = substrate: OC[C@H]1O[C@@H](O[C@H]2[C@H](O)[C@@H](O)[C@H](O[C@H]3[C@H](O)[C@@H](O)[C@H](O[C@H]4[C@H](O)[C@@H](CO)OC(O)[C@@H]4O)O[C@@H]3CO)O[C@@H]2CO)[C@H](O)[C@@H](O)[C@@H]1O; test: as above; type: biochemical, Blautia producta ATCC 27340; conditions: other: phosphorolytic reaction, pH 6.5, 37.0 °C
Protocol: as §1

[4] = substrate: OC[C@H]1O[C@@H](O[C@H]2[C@H](O)[C@@H](O)[C@H](O[C@H]3[C@H](O)[C@@H](CO)OC(O)[C@@H]3O)O[C@@H]2CO)[C@H](O)[C@@H](O)[C@@H]1O; test: purified protein, by the assay type; type: biochemical, Blautia producta ATCC 27340; conditions: other: PAHBAH assay, 100 mM HEPES pH 6.5, 37 °C
Protocol: (§2) 150 μl of a freshly prepared 8:2 mixture of reagent A (50 mM sodium sulfite, 0.3 M 4-hydroxybenzhydrazide and 0.6 M HCl) and reagent B (50 mM trisodium citrate, 10 mM CaCl2, 0.5 M NaOH) were added to 50 μl sample. The reaction cocktail was boiled for 10 min at 100 °C. After the reaction was cooled down, the absorbance was recorded at 410 nm using the SpectraMax i3x multi-mode microplate reader. A calibration curve with different concentrations of glucose (0, 2, 4, 8, 16, 40, 80, 100, 200, 300, and 500 μM) was employed for each experiment to calculate the released amount of glucose (reducing end equivalents). The same samples were also used for control measurement, and the control value was subtracted from test reading prior to calculate kinetics parameters. In all cases, the Km, Vmax, and kcat were analyzed on GraphPad Prism. Three independent replicates were used for each test. TLC analyses were used for understanding the enzymatic degradation profiles of various oligosaccharides.

[5] = substrate: OC[C@H]1O[C@@H](O[C@@H]2[C@@H](O)[C@H](O[C@H]3[C@H](O)[C@@H](CO)OC(O)[C@@H]3O)O[C@H](CO)[C@H]2O)[C@H](O)[C@@H](O)[C@@H]1O; test: purified protein, by the assay type; type: biochemical, Blautia producta ATCC 27340; conditions: other: PAHBAH assay, 100 mM HEPES pH 6.5, 37 °C
Protocol: as §2

[6] = substrate: OC[C@H]1O[C@@H](O[C@H]2[C@H](O)[C@@H](O)[C@H](O[C@H]3[C@H](O)[C@@H](O)[C@H](O[C@H]4[C@H](O)[C@@H](CO)OC(O)[C@@H]4O)O[C@@H]3CO)O[C@@H]2CO)[C@H](O)[C@@H](O)[C@@H]1O; test: purified protein, by the assay type; type: biochemical, Blautia producta ATCC 27340; conditions: other: PAHBAH assay, 100 mM HEPES pH 6.5, 37 °C
Protocol: as §2

[7] = substrate: OC[C@H]1O[C@@H](O[C@H]2[C@H](O)[C@@H](O)[C@H](O[C@H]3[C@H](O)[C@@H](CO)OC(O)[C@@H]3O)O[C@@H]2CO)[C@H](O)[C@@H](O)[C@@H]1O; test: purified protein, by the assay type; conditions: other: PAHBAH assay, 100 mM HEPES pH 6.5, 37 °C
Protocol: as §2

[8] = substrate: OC[C@H]1O[C@@H](O[C@@H]2[C@@H](O)[C@H](O[C@H]3[C@H](O)[C@@H](CO)OC(O)[C@@H]3O)O[C@H](CO)[C@H]2O)[C@H](O)[C@@H](O)[C@@H]1O; test: purified protein, by the assay type; conditions: other: PAHBAH assay, 100 mM HEPES pH 6.5, 37 °C
Protocol: as §2

[9] = substrate: O=C[C@H](O)[C@@H](O)[C@H](O[C@@H]1O[C@H](CO)[C@@H](O)[C@H](O)[C@H]1O)[C@H](O)CO; test: purified protein, by the assay type; conditions: other: PAHBAH assay, 100 mM HEPES pH 6.5, 37 °C
Protocol: as §2

[10] = substrate: OC[C@H]1O[C@@H](O[C@H]2[C@H](O)[C@@H](O)[C@H](O[C@H]3[C@H](O)[C@@H](O)C(O)O[C@@H]3CO)O[C@@H]2CO)[C@H](O)[C@@H](O)[C@@H]1O; test: purified protein, by the assay type; conditions: other: PAHBAH assay, 100 mM HEPES pH 6.5, 37 °C
Protocol: as §2

[11] = substrate: OC[C@H]1O[C@@H](O[C@H]2[C@H](O)[C@@H](O)[C@H](O[C@H]3[C@H](O)[C@@H](O)[C@H](O[C@H]4[C@H](O)[C@@H](CO)OC(O)[C@@H]4O)O[C@@H]3CO)O[C@@H]2CO)[C@H](O)[C@@H](O)[C@@H]1O; test: purified protein, by the assay type; conditions: other: PAHBAH assay, 100 mM HEPES pH 6.5, 37 °C
Protocol: as §2

[12] = substrate: OC[C@H]1O[C@@H](O[C@H]2[C@H](O)[C@@H](O)[C@H](O[C@H]3[C@H](O)[C@@H](O)[C@H](O[C@H]4[C@H](O)[C@@H](O)C(O)O[C@@H]4CO)O[C@@H]3CO)O[C@@H]2CO)[C@H](O)[C@@H](O)[C@@H]1O; test: purified protein, by the assay type; conditions: other: PAHBAH assay, 100 mM HEPES pH 6.5, 37 °C
Protocol: as §2

[13] = substrate: OC[C@H]1O[C@@H](O[C@H]2[C@H](O)[C@@H](CO)OC(O)[C@@H]2O)[C@H](O)[C@@H](O)[C@@H]1O; test: purified protein, by the assay type; conditions: other: PAHBAH assay, 100 mM HEPES pH 6.5, 37 °C
Protocol: as §2

B1: BpGH94MLG (Blautia producta) (protein)
chain: MKYGYFDEEKKEYVITRPDTPAPWVNYLGSPEYGAIISNNAGGYSFEKSGANGRILRYVFNNFDQPGRYIYIRDQENKDFWSASWQPVGKPQDVYQCECRHGTAYTNMRAEYSEISSEVLYYVPLGAAYEVWRLRLTNNSDRPRNLCVTGYAEFTNNSNYEQDQVNLQYSQFITQTAFRGNRICQMIHANLDQLEPGKDVDDKQVTERFFGLAGNPVTSWCGDKDGFLGRYHGYDAPKGVIEGKLSCLPNYNGNGCGALSSDFVLKPGEAKEVVFVLGMKKDAEVEEILKRYEIPETVCREEFHKLVKYWHGYLSHFQVKTPSREFNTMVNTWNAYNCFMTFIWSRAASFIYCGLRNGYGYRDTVQDIQGIIHLAPDMALEKIRFMLSAQADNGGGLPLVKFTHNPGHEDTPDDASYVKETGHPAYRADDALWLFPTVYKYIAETGNMDFIDEVIPFANRGKATVYEHLKRAVKFSMDHLGRHGMPAGLYADWNDCLRLGKDGESTFVAMQFYYAMTILKKFAKYKKDVEYMEFLCERQKKLEELIQKFCWDEGRFIRGFTENGEIIGKSTDPEANMWLNPQSWAVISGVANEEQADRVLDVVEKRLNTEYGLVLMDPPYHAHAFDGALAVIYNPGTKENAGIFSQSQGWIILAEALRGHGERAFTYFMENAPAAQNDRADIRKLEPYCYGQFTEGKDSPNFGRSHVHWLTGTASTIMVGCVEGILGIRPDFYGIRLAPAIPKEWEEYEVEKDFRGCHLHIKVKNPGHVESGCEKLVVNGNVVTGSYIPADLLTEQTDIELFIS
Question: Which results are given for B1?
Answer: Km [1]: 52 ± 5 µM; kcat [1]: 1.86 ± 0.022 s⁻¹; kcat/Km [1]: 35700 M⁻¹ s⁻¹; Km [2]: 28 ± 4 µM; kcat [2]: 0.67 ± 0.021 s⁻¹; kcat/Km [2]: 23900 M⁻¹ s⁻¹; Km [3]: 21 ± 2 µM; kcat [3]: 1.21 ± 0.014 s⁻¹; kcat/Km [3]: 57600 M⁻¹ s⁻¹

B2: BpGH3-AR8MLG (Blautia producta ATCC 27340 = DSM 2950) (protein)
chain: MKLKNKTFTGTTSNEVTARETENRKLARLAAAEGFVLLKNQDHILPLKKGIKLGLYGAGAVKTIKGGTGSGDVNERECVNICQGLENAGYEITSSAWLEAYASLYEETRLKWRDEILGKLEAYDNNFFEAYSTTPFFMPCGNPVDVDKASDDGADTAIYVLSRIAGENADRHDTEGDYYISAEEKALIAQLSKAYDSLVLVINTGGLVDLAFVQEFDNIKAVLQFVQAGQEGGSAFADVVSGKVTPSGKLADTWAFDYKDYPNSETFSFKNGDVNTEKYQEGIYVGYRYFDTFDVPVLYPFGFGLSYTDFMICTEEIKTVNTESGKPEIAVTVKVTNTGDTYCGKEVVQIYVSCPQGKLAKEYRRLAGFAKTEELKPGESCRITITFPVYQLASFHEENAAWVLEEGTYGVWTGNSIQGAKLAGSLCVDKDAILVQCEHICPVKEELTELTPDSSRMKEKEAAWLEKAAGLPSVHIDAEKITKETVVYTELPERFTGRAGEIVESLSVEQLIQMSAGDPGKGQDAVLGSAGITVPGAAAETSSAASGEPWNLPSIALADGPAGLRLNQKYQVVDGEIVRENFMKSIEKGFFAEPSPEVGTAYYQFCTAIPVGTLLAQTWNAELVKEVGEMIGKEMELFQVTLWLAPGMNIHRNPLCGRNFEYYSEDPLLSGIMASAMTLGVQKVPGCGTTIKHFACNNQEDNRMGSDSVLSERALREIYLKGFEIAVKNSQPMSIMTSYNMINGVHAANCYDICTRAARDEWEFAGAVMTDWTTTFASPRGECTAAGCMRAGNDMVMPGIPKDHENIRRELEEGTLDIRELKRCICNTVNLILQSNRYENAVSYLEQFEGLDAYLSVERSN
Question: Which results are given for B2?
Answer: kcat [4]: 17 ± 0.3 s⁻¹; kcat/Km [4]: 71000 M⁻¹ s⁻¹; Km [5]: 230 ± 50 µM; kcat [5]: 12 ± 0.2 s⁻¹; kcat/Km [5]: 52000 M⁻¹ s⁻¹; Km [6]: 300 ± 40 µM; kcat [6]: 20 ± 0.3 s⁻¹; kcat/Km [6]: 67000 M⁻¹ s⁻¹

B3: BpGH3-X62MLG (Blautia producta ATCC 27340 = DSM 2950) (protein)
chain: MENKYVIDWDKYAALARRAAAEGAVLLKNDNQALPLKKETISVFGRIQYHYYKSGTGSGGLVNAKYVIGIMDALQEEKDLTLDEELAAVYRSWIMEHPFDQGSGWAQEPWSQEEMPLDEKMVEEAAARSDTAVIVIGRTAGEDRDASAEKGSYLLTDLEEDMLEKVCRLFKKSIVVLNVGNIIDMKWVEKYNPSAVLYTWQGGQEGGHSAADVLTGRVNPCGKLADTIARDISDYPSTENFGGGDFDIYAEDIYVGYRYFETFARDKVLYPFGFGLSYTSFRTECGPIKRLDGETSVCVKVTNAGSCAGKEVVQMYVEPPQGKLGKPSRNLAAFAKTKCLQPGESQELVLKVTDYYISSYDDSGAAGFKSCYVLENGSYGIYVGTDVRGAEAAGSFYIPETIATSVCTEAAGPVRQFKRMRAKEGGALAWEEAPLRTHKMQERIHKEILPDITYTGNKGFTLGEVFDRDISLNEFLAQLSEEDLCCIVRGEGMCSPKVTPGTAAAFGGVTESLQKLGIPCGCCADGPSGIRMDCGTPAFSMPNGTCLACTFDTELSEELYEMEGAELRKNRIDTLLGPGINIHRNPLNGRNFEYFSEDPYLTGIMASAQLKGMARFGVTGTIKHFAANNQEYHRRLLDSVMSERALREIYLRGFEIAVKEGKAYSIMTTYGAINGLWTASNYDLLTTILRKEWGFEGMVMTDWWADLNDEGGQPSTDNLAAMVRSQNDVYMVTQDSLNNKDNLMESLKNGTLKRGALLRCAGNICRMLMRSPVMERTLGRMSEEEKKAGEVMAGEDKVDFDITYHKVQGSLVLDGTKIDTSKGNSVVYGILLDTFGSYKVRLKVKADSGELAQIPVSVFANGHLEGTVTINGTKGEWIEIEKTIGPLFGPHNYVRLYFAQSGMQIQTVTIELQEKMDRGF
Question: For B3, which Km [7] is on record?
Answer: 230 ± 40 µM

Question: What about the kcat [7] of the same protein?
Answer: 17 ± 0.3 s⁻¹

Question: What about the kcat/Km [7] of the same protein?
Answer: 73000 M⁻¹ s⁻¹

Question: And the kcat [8]?
Answer: 12 ± 0.2 s⁻¹

Question: What about the kcat/Km [8] of the same protein?
Answer: 51000 M⁻¹ s⁻¹

Question: What about the Km [9] of the same protein?
Answer: 200 ± 30 µM

Question: And the kcat [9]?
Answer: 8 ± 0.01 s⁻¹

Question: What about the kcat/Km [9] of the same protein?
Answer: 38000 M⁻¹ s⁻¹

Question: What about the Km [10] of the same protein?
Answer: 260 ± 30 µM

Question: And the kcat [10]?
Answer: 15 ± 0.2 s⁻¹

Question: And the kcat/Km [10]?
Answer: 59000 M⁻¹ s⁻¹

Question: And the Km [11]?
Answer: 250 ± 50 µM

Question: What about the Km [12] of the same protein?
Answer: 450 ± 60 µM

Question: What about the kcat [12] of the same protein?
Answer: 19 ± 0.3 s⁻¹

Question: And the kcat/Km [12]?
Answer: 43000 M⁻¹ s⁻¹

Question: What about the kcat [13] of the same protein?
Answer: 12 ± 0.2 s⁻¹

Question: And the kcat/Km [13]?
Answer: 48000 M⁻¹ s⁻¹
